Here are results for 4 molecules from article PMC8269367, “DNA G-Quadruplexes Contribute to CTCF Recruitment”.

The target of series [1] is T1, HMGN1 (Homo sapiens, UniProt P05114 1-100).
T1 sequence: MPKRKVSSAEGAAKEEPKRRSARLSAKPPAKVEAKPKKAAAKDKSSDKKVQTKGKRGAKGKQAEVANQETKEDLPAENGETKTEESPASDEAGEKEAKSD
Put plainly: MST; MST, 50 nM labelled protein, 0.61 nM-20 uM oligo, 140 mM potassium phosphate pH 7.2 (6.7 for i-motif N1-3; CTCF oligo CD at pH 6.7), 10 mM NaCl in oligo stocks, 22 C. The note with it: protein: commercial; tags: His; parallel G4, partly intermolecular.

In series [2] the target is T1, HMGN1. As to the kind of experiment: MST; positive control; MST, 50 nM labelled protein, 0.61 nM-20 uM oligo, 140 mM potassium phosphate pH 7.2 (6.7 for i-motif N1-3; CTCF oligo CD at pH 6.7), 10 mM NaCl in oligo stocks, 22 C. The note with it: protein: commercial; tags: His; parallel G4.
Series [3] has as its target T2, HMGB2 (Homo sapiens, UniProt P26583 1-209).
T2 sequence: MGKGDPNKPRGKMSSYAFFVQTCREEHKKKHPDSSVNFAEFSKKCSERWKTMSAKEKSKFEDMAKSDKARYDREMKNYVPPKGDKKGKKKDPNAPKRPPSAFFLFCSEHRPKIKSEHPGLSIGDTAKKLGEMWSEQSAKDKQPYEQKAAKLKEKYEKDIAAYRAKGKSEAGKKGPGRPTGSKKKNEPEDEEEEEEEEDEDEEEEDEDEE
Put plainly: MST; MST, 50 nM labelled protein, 0.61 nM-20 uM oligo, 140 mM potassium phosphate pH 7.2 (6.7 for i-motif N1-3; CTCF oligo CD at pH 6.7), 10 mM NaCl in oligo stocks, 22 C. The note with it: protein: commercial; tags: His; mixed-topology G4.

GGGGAGGGGGAGGGGGGAGGGAGGGGAGG (structured_DNA) [N1C-3 (N1-C3)]: in series [1], the Kd (commonly the constant that tells how readily two partners part at equilibrium) came to 200 ± 100 nM.

Take GGTGACAGGGGTATGGGGAGGGG (structured_DNA) [CT1 (G4-2)]: the Kd in series [2] was found to be 1600 ± 300 nM.

As for GGGCCCTGGGAACGGGGAGGG (structured_DNA) [B2-M7], in series [3], the dissociation constant (Kd) stood at 1600 ± 600 nM.

GGGAGAGGGAGAGGGAGAGGG (structured_DNA) [B2-M6] came in with an equilibrium dissociation constant (Kd) in series [3] of 4000 ± 2000 nM.
